{
  "source": "patent US20150284450A1",
  "about": "“COMBINATION THERAPIES USING ANTI-PSEUDOMONAS PSL AND PCRV BINDING MOLECULES” (priority 2012, published 2015)",
  "key": {"[1]": {"tested_on": "P. aeruginosa 6077 (exoU+)", "assay": "Rabbit red blood cell lysis inhibition assay with strain 6077", "type": "cell-based, Pseudomonas aeruginosa", "details": "strain 6077; FIG. 12D-E", "experimental": "Percent inhibition of cytotoxicity analysis was analysed for the parental V2L2 mAb, mAb166 (positive control) and R347 (negative control), where the antibodies were administered to cultured broncho-epithelial cell line A549 combined with log-phase P. aeruginosa strain 6077 (exoU+) at a MOI of approximately 10. A549 lysis was assayed by measuring released lactate dehydrogenase (LDH) activity and lysis in the presence of mAbs was compared to wells without mAb to determine percent inhibition. The V2L2 mAb, mAb166 (positive control) and R347 (negative control) were evaluated for their ability to prevent lysis of RBCs, where the antibodies were mixed with log-phase P. aeruginosa 6077 (exoU^+) and washed rabbit red blood cells (RBCs) and incubated for 2 hours at 37°. Intact RBCs were pelleted and the extent of lysis determined by measuring the OD405 of the cell-free supernatant. Lysis in the presence of anti-PcrV mAbs was compared to wells without mAb to determine percent inhibition."}, "rPcrV protein": {"target": "rPcrV protein", "assay": "Binding kinetics on Bio-Rad ProteOn XPR36", "parameters": "species or system Pseudomonas aeruginosa", "details": "antibody captured, rPcrV injected; FIG. 12G-H", "experimental": "Binding kinetics of V2L2-GL and V2L2-MD were measured using a Bio-Rad ProteOn™ XPR36 instrument. Antibodies were captured on a GLC bisensor chip using anti-human IgG reagents. rPcrV protein was injected at multiple concentrations and the dissociation phase followed for 600 seconds. Data was captured and analyzed using ProteOn Manager software. […] The clone V2L2-MD had increased Kd by 2-3 folds over V2L2-GL."}, "[2]": {"tested_on": "P. aeruginosa 6077 (O11, cytotoxic)", "assay": "Acute pneumonia model in mice, strain 6077", "type": "in vivo, Pseudomonas aeruginosa", "details": "WapR-004 5 and 1 mg/kg; 6077 (O11) 8×10^5 or 6×10^5 CFU; FIG. 6E-F", "experimental": "(§1) Antibodies or PBS were administered 24 hours before infection in each model. P. aeruginosa acute pneumonia, keratitis, and thermal injury infection models were performed as described (DiGiandomenico, A., et al., Proc Natl Acad Sci USA 104, 4624-4629 (2007)), with modifications. In the acute pneumonia model, BALB/c mice (The Jackson Laboratory) were infected with P. aeruginosa strains suspended in a 0.05 ml inoculum. In the thermal injury model, CF-1 mice (Charles River) received a 10% total body surface area burn with a metal brand heated to 92° C. for 10 seconds. Animals were infected subcutaneously with P. aeruginosa strain 6077 at the indicated dose. For organ burden experiments, acute pneumonia was induced in mice followed by harvesting of lungs, spleens, and kidneys 24 hours post-infection for determination of CFU."}, "P. aeruginosa 6294 (O6)": {"tested_on": "P. aeruginosa 6294 (O6)", "assay": "Acute pneumonia model in mice, strain 6294", "type": "in vivo, Pseudomonas aeruginosa", "details": "for Overall Impression, lung histology: BALB/c mice", "experimental": "as §1"}, "[3]": {"tested_on": "P. aeruginosa 6077 (O11-cytotoxic)", "assay": "Corneal infection (keratitis) model in mice, strain 6077", "type": "in vivo, Pseudomonas aeruginosa", "details": "antibody 24 h prior to 6077 (2×10^6 CFU); FIG. 8A-D, F-G", "experimental": "as §1\nCam-003 and WapR-004 efficacy was next evaluated in a P. aeruginosa corneal infection model which emphasizes the pathogens ability to attach and colonize damaged tissue. […] FIG. 8 (H): The activity of anti-Psl and anti-PcrV monoclonal antibodies V2L2 was tested in a P. aeruginosa mouse ocular keratitis model. C3H/HeN mice were injected intraperitoneally (IP) with PBS or a control IgG1 antibody (R347) at 45 mg/kg or WapR-004 (α-Psl) at 5 mg/kg or V2L2 (α-PcrV) at 5 mg/kg, 16 hours prior to infection with 6077 (O11-cytotoxic−1×10^6 CFU) Immediately before infection, mice were anesthetized followed by initiation of three 1 mm scratches on the cornea and superficial stroma of one eye of each mouse using a 27-gauge needle under a dissection microscope, followed by topical application of P. aeruginosa 6077 strain in a 5 μl inoculum. Eyes were photographed at 48 hours post infection followed by corneal grading by visualization of eyes under a dissection microscope. Grading of corneal infection was performed as previously described by Preston et al. (Preston, M J., 1995, Infect. Immun. 63:3497). Briefly, infected eyes were graded 48 h after infection with strain 6077 by an investigator who was unaware of the animal treatments. The following grading scheme was used: grade 0, eye macroscopically identical to an uninfected eye; grade 1, faint opacity partially covering the pupil; grade 2, dense opacity covering the pupil; grade 3, dense opacity covering the entire pupil; grade 4, perforation of the cornea (shrinkage of the eyeball)."}, "[4]": {"tested_on": "P. aeruginosa serogroup 011 strain (9882-80.lux)", "assay": "OPK assay with luminescent 9882-80.lux", "type": "cell-based, Pseudomonas aeruginosa", "details": "FIG. 2B", "experimental": "(§2) This example describes the evaluation of prioritized human IgG1 antibodies to promote OPK of P. aeruginosa. […] OPK assays were performed as described in (DiGiandomenico, A., et al., Infect Immun 72, 7012-7021 (2004)), with modifications. Briefly, assays were performed in 96-well plates using 0.025 ml of each OPK component; P. aeruginosa strains; diluted baby rabbit serum; differentiated HL-60 cells; and monoclonal antibody. In some OPK assays, luminescent P. aeruginosa strains, which were constructed as described (Choi, K. H., et al., Nat Methods 2, 443-448 (2005))., were used. Luminescent OPK assays were performed as described above but with determination of relative luciferase units (RLUs) using a Perkin Elmer ENVISION Multilabel plate reader (Perkin Elmer).\nThe ability of the WapR-004 and Cam-003 antibodies to mediate OPK activity against another clinically relevant O-antigen serotype strain, 9882-80.lux, was evaluated."}, "[5]": {"tested_on": "P. aeruginosa PAO1.lux attachment to A549 cells", "assay": "Cell attachment assay, PAO1.lux on A549 cells", "type": "cell-based, Pseudomonas aeruginosa", "details": "MOI 10, FIG. 4", "experimental": "Anti-Psl antibodies were added to a confluent monolayer of A549 cells (an adenocarcinoma human alveolar basal epithelial cell line) grown in opaque 96-well plates (Nunc Nunclon Delta). Log-phase luminescent P. aeruginosa PAO1 strain (PAO1.lux) was added at an MOI of 10. After incubation of PAO1.lux with A549 cells at 37° C. for 1 hour, the A549 cells were washed, followed by addition of LB+0.5% glucose. Bacteria were quantified following a brief incubation at 37° C. as performed in the OPK assay described in Example 2. Measurements from wells without A549 cells were used to correct for non-specific binding."}, "[6]": {"tested_on": "P. aeruginosa serogroup 05 strain (PAO1.lux)", "assay": "Opsonophagocytic killing (OPK) assay with luminescent PAO1.lux, HL-60 cells and baby rabbit serum", "type": "cell-based, Pseudomonas aeruginosa", "details": "FIG. 2A", "experimental": "as §2"}, "[7]": {"tested_on": "P. aeruginosa 6206 (O11-ExoU+)", "assay": "Acute pneumonia model in mice, strain 6206", "type": "in vivo, Pseudomonas aeruginosa", "experimental": "as §1"}, "[8]": {"details": "1.33×10^7 CFU 6294, 0.2 mg/kg (combination 0.1 mg/kg ea), Table 6A"}, "[9]": {"details": "1.7×10^7 CFU 6294, 0.2 mg/kg (combination 0.1 mg/kg ea), Table 6B"}, "[10]": {"details": "5.25×10^5 cfu 6206, single antibody: R347 2.1 mg/kg, V2L2 0.1 mg/kg, WapR-004 0.5 mg/kg, Table 5"}, "[11]": {"details": "9.25×10^5 CFU 6206, 0.2 mg/kg (combination 0.1 mg/kg ea), Table 7"}},
  "data": [
    {"molecule": "V2L2-MD: optimized V2L2-GL mAb; germlined lead optimized anti-PcrV antibody used in Bs4-GLO (antibody, V domains shown, V2L2-MD VH; V2L2-MD and V2L2-GL VL) VH: EMQLLESGGGLVQPGGSLRLSCAASGFTFSSYAMNWVRQAPGEGLEWVSAITISGITAYYTDSVKGRFTISRDNSKNTLYLQMNSLRAGDTAVYYCAKEEFLPGTHYYYGMDVWGQGTTVTVSS VL: AIQMTQSPSSLSASVGDRVTITCRASQGIRNDLGWYQQKPGKAPKLVIYSASTLQSGVPSRFSGSGSGTDFTLSISSLQPDDFATYYCLQDYNYPWTFGQGTKVEIK", "values": [
      {"measurement": "prevention of RBC lysis", "setting": "[1]", "value": "demonstrated prevention of RBC lysis"},
      {"measurement": "Kd increased over V2L2-GL", "setting": "rPcrV protein", "value": "2-3 folds"}
    ]},
    {"molecule": "WapR-004: anti-Psl human IgG1 monoclonal antibody; VH SEQ ID NO: 11, VL SEQ ID NO: 12 (antibody, V domains shown, WapR-004 VH; WapR-004 & WarR-004RAD VL) VH: EVQLLESGPGLVKPSETLSLTCNVAGGSISPYYWTWIRQPPGKGLELIGYIHSSGYTDYNPSLKSRVTISGDTSKKQFSLHVSSVTAADTAVYFCARGDWDLLHALDIWGQGTLVTVSS VL: EIVLTQSPSSLSTSVGDRVTITCRASQSIRSHLNWYQQKPGKAPKLLIYGASNLQSGVPSRFSGSGSGTDFTLTISSLQPEDFATYYCQQSYSFPLTFGGGTKLEIK", "values": [
      {"measurement": "survival", "setting": "[2]", "value": "significant concentration-dependent survival"},
      {"measurement": "Hemorrhage, extent in words", "setting": "P. aeruginosa 6294 (O6); [8]", "value": "Extensive"},
      {"measurement": "Inflammatory Infiltrate", "setting": "P. aeruginosa 6294 (O6); [8]", "value": "PMN 3+"},
      {"measurement": "Involved Lung Surface Area", "setting": "P. aeruginosa 6294 (O6); [8]", "value": 57, "unit": "%"},
      {"measurement": "Bacteria", "setting": "P. aeruginosa 6294 (O6); [9]", "value": "Neg-2+"},
      {"measurement": "Inflammatory Infiltrate", "setting": "P. aeruginosa 6294 (O6); [9]", "value": "PMN 2+"},
      {"measurement": "Involved Lung Surface Area", "setting": "P. aeruginosa 6294 (O6); 1.7×10^7 CFU 6294, 0.2 mg/kg, Table 6B", "value": 40, "unit": "%"},
      {"measurement": "organ burden after induction of acute pneumonia", "setting": "P. aeruginosa 6294 (O6); 6294 (~1×10^7 CFU), 15, 5, 1 mg/kg, FIG. 7E", "value": "reduced organ burden"},
      {"measurement": "Overall Impression, lung histology", "setting": "P. aeruginosa 6294 (O6); [8]", "value": "Broncho interstitial pneumonia"},
      {"measurement": "Overall Impression, lung histology", "setting": "P. aeruginosa 6294 (O6); [9]", "value": "Broncho interstitial pneumonia"},
      {"measurement": "bacterial counts in total eye homogenates compared to negative control", "setting": "[3]", "value": "reduced bacterial counts in total eye homogenates"},
      {"measurement": "corneal pathology compared to negative control-treated animals", "setting": "[3]", "value": "significantly less pathology"},
      {"measurement": "OPK activity against strain 9882-80 (O11)", "setting": "[4]", "value": "extends to strain 9882-80 (O11)"},
      {"measurement": "reduction of P. aeruginosa cell attachment to A549 cells compared to the negative control (up to)", "setting": "[5]", "value": "~80", "unit": "%"},
      {"measurement": "OPK activity, in words", "setting": "[6]", "value": "superior OPK activity"},
      {"measurement": "organ burden / tissue clearance (lung, spleen, kidney CFU)", "setting": "[7]; 5.25×10^5 cfu 6206, V2L2 0.1 mg/kg, W4-RAD 0.5 mg/kg, combination, 24 h post infection, FIG. 15", "value": "effective in lowering organ burden"},
      {"measurement": "Inflammatory Infiltrate", "setting": "[7]; [10]", "value": "PMN 2-3+"},
      {"measurement": "Involved Lung Surface Area", "setting": "[7]; [10]", "value": 50, "unit": "%"},
      {"measurement": "Overall Impression, lung histology", "setting": "[7]; [10]", "value": "Broncho interstitial pneumonia"},
      {"measurement": "Bacteria", "setting": "[7]; [11]", "value": "Neg-1+"},
      {"measurement": "Inflammatory Infiltrate", "setting": "[7]; [11]", "value": "PMN 1-2+"},
      {"measurement": "Involved Lung Surface Area", "setting": "[7]; [11]", "value": 36, "unit": "%"},
      {"measurement": "organ burden after induction of acute pneumonia", "setting": "[7]; 6206 (~1×10^6 CFU), 15, 5, 1 mg/kg, FIG. 7F", "value": "reduced organ burden"},
      {"measurement": "Overall Impression, lung histology", "setting": "[7]; BALB/c mice, 9.25×10^5 CFU 6206, 0.2 mg/kg (combination 0.1 mg/kg ea), Table 7", "value": "Broncho interstitial pneumonia"}
    ]}
  ]
}
